# Columns and labels:
# [1] = target: T1, skn-1 (T19E7.2) (Caenorhabditis elegans) (UniProt P34707)
# T1 sequence: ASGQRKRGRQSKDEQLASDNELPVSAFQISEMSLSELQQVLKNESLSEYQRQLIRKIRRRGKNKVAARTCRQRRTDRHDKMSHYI
# [2] = target: T2, mbr-1 (T01C1.2) (Caenorhabditis elegans) (UniProt G5EGQ5)
# T2 sequence: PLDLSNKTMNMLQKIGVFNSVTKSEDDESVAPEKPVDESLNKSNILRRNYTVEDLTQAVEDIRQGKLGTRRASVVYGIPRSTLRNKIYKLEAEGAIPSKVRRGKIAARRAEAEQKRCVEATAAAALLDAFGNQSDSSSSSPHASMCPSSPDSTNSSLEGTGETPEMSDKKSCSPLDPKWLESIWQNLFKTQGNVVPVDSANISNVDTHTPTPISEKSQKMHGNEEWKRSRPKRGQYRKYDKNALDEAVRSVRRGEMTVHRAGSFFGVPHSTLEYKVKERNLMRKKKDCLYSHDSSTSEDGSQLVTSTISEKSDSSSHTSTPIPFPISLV
# [3] = target: T3, nhr-142 (F44E7.8) (Caenorhabditis elegans) (UniProt J7SF93)
# T3 sequence: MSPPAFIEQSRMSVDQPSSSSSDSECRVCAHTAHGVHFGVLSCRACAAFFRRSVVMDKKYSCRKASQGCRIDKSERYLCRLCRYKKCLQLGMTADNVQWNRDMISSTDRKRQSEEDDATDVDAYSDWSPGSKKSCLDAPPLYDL
# [4] = target: T4, nhr-232 (Y22F5A.1) (Caenorhabditis elegans) (UniProt A0A486WVR6)
# T4 sequence: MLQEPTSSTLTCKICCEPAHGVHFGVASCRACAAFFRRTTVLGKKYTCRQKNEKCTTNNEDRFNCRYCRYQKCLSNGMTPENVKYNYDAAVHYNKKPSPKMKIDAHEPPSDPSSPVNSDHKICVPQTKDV
# [5] = target: T5, nhr-70 (Y51A2D.17) (Caenorhabditis elegans) (UniProt G5EEL3)
# T5 sequence: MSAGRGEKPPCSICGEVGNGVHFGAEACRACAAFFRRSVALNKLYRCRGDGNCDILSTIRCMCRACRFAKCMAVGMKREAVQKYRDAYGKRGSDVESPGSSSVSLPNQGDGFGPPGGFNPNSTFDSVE
# [6] = target: T6, nhr-66 (T09A12.4) (Caenorhabditis elegans) (UniProt H2KYJ8)
# T6 sequence: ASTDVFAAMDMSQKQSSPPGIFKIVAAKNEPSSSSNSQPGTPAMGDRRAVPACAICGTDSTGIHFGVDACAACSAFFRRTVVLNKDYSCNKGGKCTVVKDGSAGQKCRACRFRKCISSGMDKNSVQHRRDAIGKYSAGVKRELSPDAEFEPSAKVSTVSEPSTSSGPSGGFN
# [7] = target: T7, odr-7 (T18D3.2) (Caenorhabditis elegans) (UniProt P41933)
# T7 sequence: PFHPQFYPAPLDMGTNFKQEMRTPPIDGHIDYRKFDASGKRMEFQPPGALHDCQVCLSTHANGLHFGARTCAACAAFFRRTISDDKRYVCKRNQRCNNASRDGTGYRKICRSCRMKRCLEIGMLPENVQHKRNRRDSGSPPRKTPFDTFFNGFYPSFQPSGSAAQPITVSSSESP
# [8] = target: T8, nhr-42 (C33G8.6) (Caenorhabditis elegans) (UniProt O76828)
# T8 sequence: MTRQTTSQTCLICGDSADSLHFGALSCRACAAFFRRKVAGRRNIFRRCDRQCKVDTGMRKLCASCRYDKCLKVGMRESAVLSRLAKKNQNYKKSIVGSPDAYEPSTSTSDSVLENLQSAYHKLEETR
sequence,measurement,setting,value
ATGATGAC (double strand) [8-mer ATGATGAC],binding signal (PBM E-score (-0.5 to 0.5)),[1],0.497
ATGGCCCC (double strand) [8-mer ATGGCCCC],binding signal (PBM E-score (-0.5 to 0.5)),[2],0.487
ATGTCATC (double strand) [8-mer ATGTCATC],binding signal (PBM E-score (-0.5 to 0.5)),[1],0.494
ATTGTGAC (double strand) [8-mer ATTGTGAC],binding signal (PBM E-score (-0.5 to 0.5)),[3],0.494
same,binding signal (PBM E-score (-0.5 to 0.5)),[4],0.489
CGACTACA (double strand) [8-mer CGACTACA],binding signal (PBM E-score (-0.5 to 0.5)),[5],0.487
CGGCTACA (double strand) [8-mer CGGCTACA],binding signal (PBM E-score (-0.5 to 0.5)),[5],0.488
CGGGGGGC (double strand) [8-mer CGGGGGGC],binding signal (PBM E-score (-0.5 to 0.5)),[2],0.487
GACACAAA (double strand) [8-mer GACACAAA],binding signal (PBM E-score (-0.5 to 0.5)),[4],0.475
GACTACAC (double strand) [8-mer GACTACAC],binding signal (PBM E-score (-0.5 to 0.5)),[6],0.484
same,binding signal (PBM E-score (-0.5 to 0.5)),[5],0.49
GAGGGGCC (double strand) [8-mer GAGGGGCC],binding signal (PBM E-score (-0.5 to 0.5)),[2],0.489
GATGACAA (double strand) [8-mer GATGACAA],binding signal (PBM E-score (-0.5 to 0.5)),[1],0.498
GATGACTA (double strand) [8-mer GATGACTA],binding signal (PBM E-score (-0.5 to 0.5)),[1],0.489
GATGATAA (double strand) [8-mer GATGATAA],binding signal (PBM E-score (-0.5 to 0.5)),[1],0.488
GCCCCCCA (double strand) [8-mer GCCCCCCA],binding signal (PBM E-score (-0.5 to 0.5)),[2],0.487
GCTACAAA (double strand) [8-mer GCTACAAA],binding signal (PBM E-score (-0.5 to 0.5)),[6],0.482
same,binding signal (PBM E-score (-0.5 to 0.5)),[5],0.489
same,binding signal (PBM E-score (-0.5 to 0.5)),[7],0.462
GCTACAAC (double strand) [8-mer GCTACAAC],binding signal (PBM E-score (-0.5 to 0.5)),[5],0.483
GGACACAA (double strand) [8-mer GGACACAA],binding signal (PBM E-score (-0.5 to 0.5)),[3],0.493
same,binding signal (PBM E-score (-0.5 to 0.5)),[4],0.473
GGATGACA (double strand) [8-mer GGATGACA],binding signal (PBM E-score (-0.5 to 0.5)),[1],0.489
GGCCCCCC (double strand) [8-mer GGCCCCCC],binding signal (PBM E-score (-0.5 to 0.5)),[2],0.498
GGCTACAA (double strand) [8-mer GGCTACAA],binding signal (PBM E-score (-0.5 to 0.5)),[5],0.492
same,binding signal (PBM E-score (-0.5 to 0.5)),[7],0.467
GGCTACAC (double strand) [8-mer GGCTACAC],binding signal (PBM E-score (-0.5 to 0.5)),[5],0.487
GGGGCCAA (double strand) [8-mer GGGGCCAA],binding signal (PBM E-score (-0.5 to 0.5)),[2],0.488
GGGGCCTA (double strand) [8-mer GGGGCCTA],binding signal (PBM E-score (-0.5 to 0.5)),[2],0.487
GGGGGCCA (double strand) [8-mer GGGGGCCA],binding signal (PBM E-score (-0.5 to 0.5)),[2],0.495
GGTCACAA (double strand) [8-mer GGTCACAA],binding signal (PBM E-score (-0.5 to 0.5)),[3],0.495
same,binding signal (PBM E-score (-0.5 to 0.5)),[4],0.485
GTCACAAA (double strand) [8-mer GTCACAAA],binding signal (PBM E-score (-0.5 to 0.5)),[3],0.498
same,binding signal (PBM E-score (-0.5 to 0.5)),[4],0.497
same,binding signal (PBM E-score (-0.5 to 0.5)),[8],0.48
GTCACACA (double strand) [8-mer GTCACACA],binding signal (PBM E-score (-0.5 to 0.5)),[4],0.46
GTCATCAC (double strand) [8-mer GTCATCAC],binding signal (PBM E-score (-0.5 to 0.5)),[1],0.492
TAGTCACA (double strand) [8-mer TAGTCACA],binding signal (PBM E-score (-0.5 to 0.5)),[3],0.493
same,binding signal (PBM E-score (-0.5 to 0.5)),[4],0.482
same,binding signal (PBM E-score (-0.5 to 0.5)),[8],0.494
TGACTACA (double strand) [8-mer TGACTACA],binding signal (PBM E-score (-0.5 to 0.5)),[5],0.491
TGATGACA (double strand) [8-mer TGATGACA],binding signal (PBM E-score (-0.5 to 0.5)),[1],0.495
TGGCTACA (double strand) [8-mer TGGCTACA],binding signal (PBM E-score (-0.5 to 0.5)),[5],0.48
TGTCACAA (double strand) [8-mer TGTCACAA],binding signal (PBM E-score (-0.5 to 0.5)),[3],0.49
same,binding signal (PBM E-score (-0.5 to 0.5)),[4],0.474
